# Assay results taken from patent US20240035012A1 (WESTLAKE UNIVERSITY, published 2024).
# Substitutions are numbered along the chain they refer to. Where “and” joins values, the source holds several entries; their conditions need not be identical. Equal entries are not always repeated.
# B1: ACE2 M2-AP15-foldon (receptor)
# chain: QSTIEEQAKYFLDKFNHEAEDLFYQSSLASWNYNTNITEENVQNMNNAGDKWSAFLKEQSTYAQMYPLQEIQNLTVKLQLQALQQNGSSVLSEDKSKRLNTILNTMSTIYSTGKVCNPDNPQECLLLEPGLNEIMANSLDYNERLWAWESWRSEVGKQLRPLYEEYVVLKNEMARANHYEDYGDYWRGDYEVNGVDGYDYSRGQLIEDVEHTFEEIKPLYEHLHAYVRAKLMNAYPSYISPIGCLPAHLLGDMWGRFWTNLYSLTVPFGQKPNIDVTDAMVDQAWDAQRIFKEAEKFFVSVGLPNMTQGFWEYSMLTDPGNVQKAVCHPTAWDLGKGDFRILMCTKVTMDDFLTAHHEMGHIQYDMAYAAQPFLLRNGANEGFHEAVGEIMSLSAATPKHLKSIGLLSPDFQEDNETEINFLLKQALTIVGTLPFTYMLEKWRWMVFKGEIPKDQWMKKWWEMKREIVGVVEPVPHDETYCDPASLFHVSNDYSFIRYYTRTLYQFQFQEALCQAAKHEGPLHKCDISNSTEAGQKLFNMLRLGKSEPWTLALENVVGAKNMNVRPLLNYFEPLFTWLKDQNKNSFVGWSTDWSPYADGSAPAPAPAPAPAPAPAPAPAPAPAPAPAPAPGSGYIPEAPRDGQAYVRKDGEWVLLSTFL
# B2: ACE2 M1-AP15-foldon (receptor)
# chain: B1 chain with Y10T, K14F, H17I, E18Q, Y62L, Y313N
# B3: ACE2 M4-AP15-foldon (receptor)
# chain: B1 chain with K14F, H17I, E18Q
# B4: ACE2 M5-AP15-foldon (receptor)
# chain: B1 chain with H17A
# Molecular target: SARS-CoV-2 spike protein (SARS-CoV-2-S) (SARS-CoV-2, UniProt P0DTC2 14-1273)
# Test: cell-based or functional assay
row,Binder,"IC50, inhibition of SARS-CoV-2 pseudotyped virus (luciferase), Caco-2 cells"
1,B1,0.071 µg/ml and 0.177 nM
2,B2,0.202 µg/ml and 0.505 nM
3,B3,0.071 µg/ml and 0.177 nM
4,B4,0.052 µg/ml and 0.13 nM
